Assay results as given in US20200338203A1 (Bicycle, published 2020).
Numbered stars: 1 amine (or outer) side, 2 acyl side, 3 side chain; on linkers, the order of the positions; unused ones are H or OH. Bridge positions count the residues as written; N and C are the ends. Square brackets hold non-standard residues; d marks the D form. Ends that are not written are not given here. 1Nal = N[C@@H](Cc1cccc2ccccc12)C(=O)O; TBMB = c1c(C[*:1])cc(C[*:3])cc1C[*:2]; Gly(cPent) = N[C@H](C(=O)O)C1CCCC1; hArg = N=C(N)NCCCC[C@H](N)C(=O)O; Tle = CC(C)(C)[C@H](N)C(=O)O; Aib = CC(C)(N)C(=O)O; βAla = NCCC(=O)O; Sar = CNCC(=O)O

Biological target: T1, Human EphA2 (Ecto) (Human, UniProt P29317 24-537)
T1 construct: extracellular domain
Test: FP competition; competitor Compound 18

T1 sequence (P29317 24-537): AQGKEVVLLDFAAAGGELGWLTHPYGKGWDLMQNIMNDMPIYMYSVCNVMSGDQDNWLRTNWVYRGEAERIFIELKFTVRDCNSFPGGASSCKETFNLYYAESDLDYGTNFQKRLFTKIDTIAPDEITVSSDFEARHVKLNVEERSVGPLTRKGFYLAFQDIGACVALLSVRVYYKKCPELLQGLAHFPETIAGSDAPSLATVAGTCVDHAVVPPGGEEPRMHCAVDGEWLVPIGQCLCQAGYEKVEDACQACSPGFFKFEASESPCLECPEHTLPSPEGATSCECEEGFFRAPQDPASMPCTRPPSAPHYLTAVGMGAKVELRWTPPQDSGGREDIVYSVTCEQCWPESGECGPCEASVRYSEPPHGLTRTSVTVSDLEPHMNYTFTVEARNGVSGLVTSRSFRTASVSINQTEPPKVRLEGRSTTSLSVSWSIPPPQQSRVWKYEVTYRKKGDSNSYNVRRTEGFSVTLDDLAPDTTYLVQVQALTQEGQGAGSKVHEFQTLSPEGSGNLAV

| Binder | Ki |
| --- | --- |
| {Ac-βAla}-[Sar][Sar][Sar][Sar][Sar][Sar][Sar][Sar][Sar][Sar]H[dD]VPC[Aib][1Nal]G[Aib]F[1Nal]CP[Tle]N[hArg]P[dD]C (linker 15-22-29 via TBMB) [Compound 237] | 2.4 nM |
| [βAla][Sar][Sar][Sar][Sar][Sar][Sar][Sar][Sar][Sar][Sar]H[dD]VPC[dA][1Nal]G[Aib]F[1Nal]CP[Tle]N[hArg]P[dD]C (linker 16-23-30 via TBMB) [Compound 248] | 28.4 nM |
| [dD]VTCP[1Nal]G[Aib]F[1Nal]CP[Tle]NR[Aib]GC (linker 4-11-18 via TBMB) [Compound 186] | 1.34 nM |
| [βAla][Sar][Sar][Sar][Sar][Sar][Sar][Sar][Sar][Sar][Sar]H[dD]VPCP[1Nal]G[Aib][hArg][1Nal]CP[Tle]NR[Aib]GC (linker 16-23-30 via TBMB) [Compound 249] | 1.38 nM |
| [βAla][Sar][Sar][Sar][Sar][Sar][Sar][Sar][Sar][Sar][Sar]H[dD]VPCP[1Nal]G[Aib][hArg][1Nal]CP[Tle]N[hArg]P[dD]C (linker 16-23-30 via TBMB) [Compound 251] | 1.93 nM |
| [βAla][Sar][Sar][Sar][Sar][Sar][Sar][Sar][Sar][Sar][Sar]H[dD]VPC[Aib][1Nal]G[Aib]F[1Nal]CP[Tle]N[hArg][Aib][dD]C (linker 16-23-30 via TBMB) [Compound 238] | 2.83 nM |
| {Ac-βAla}-[Sar][Sar][Sar][Sar][Sar][Sar][Sar][Sar][Sar][Sar]H[dD]VPC[Aib][1Nal]G[Aib]F[1Nal]CP[Tle]NR[Aib][dD]C (linker 15-22-29 via TBMB) [Compound 241] | 2.98 nM |
| [βAla][Sar][Sar][Sar][Sar][Sar][Sar][Sar][Sar][Sar][Sar]H[dD]VPC[Aib]WGP[hArg]WCP[Tle]N[hArg]P[dD]C (linker 16-23-30 via TBMB) [Compound 247] | 29.7 nM |
| [βAla][Sar][Sar][Sar][Sar][Sar][Sar][Sar][Sar][Sar][Sar]H[dD]VPC[Aib][1Nal]GP[hArg][1Nal]CP[Tle]NR[Aib]GC (linker 16-23-30 via TBMB) [Compound 243] | 2.83 nM |
| {Ac-βAla}-[Sar][Sar][Sar][Sar][Sar][Sar][Sar][Sar][Sar][Sar]H[dD][Gly(cPent)]PC[Aib][1Nal]G[Aib]F[1Nal]CP[Tle]NR[Aib][dD]C (linker 15-22-29 via TBMB) [Compound 274] | 2.28 nM |
| [βAla][Sar][Sar][Sar][Sar][Sar][Sar][Sar][Sar][Sar][Sar]H[dD]VPC[Aib][1Nal]G[Aib]F[1Nal]CP[Tle]NRPGC (linker 16-23-30 via TBMB) [Compound 234] | 3.94 nM |
| [βAla][Sar][Sar][Sar][Sar][Sar][Sar][Sar][Sar][Sar][Sar]H[dD]VPC[Aib][1Nal]G[Aib]F[1Nal]CP[Tle]N[hArg]PGC (linker 16-23-30 via TBMB) [Compound 235] | 2.58 nM |
| [βAla][Sar][Sar][Sar][Sar][Sar][Sar][Sar][Sar][Sar][Sar]H[dD][Gly(cPent)]PC[Aib]WG[Aib]FWCP[Tle]NR[Aib][dD]C (linker 16-23-30 via TBMB) [Compound 275] | 15.9 nM |
| [βAla][Sar][Sar][Sar][Sar][Sar][Sar][Sar][Sar][Sar][Sar]H[dD]VPCP[1Nal]G[Aib][hArg][1Nal]CP[Tle]NR[Aib][dD]C (linker 16-23-30 via TBMB) [Compound 250] | 1.48 nM |
| [βAla][Sar][Sar][Sar][Sar][Sar][Sar][Sar][Sar][Sar][Sar]H[dD]VPCP[1Nal]G[Aib]FWCP[Tle]N[hArg]P[dD]C (linker 16-23-30 via TBMB) [Compound 265] | 1.55 nM |
| Ac-[Sar][Sar]A[dH]DVPCP[1Nal]G[Aib]F[1Nal]CP[Tle]N[hArg]PGC (linker 8-15-22 via TBMB) [Compound 231] | 1.93 nM |
| [βAla][Sar][Sar][Sar][Sar][Sar][Sar][Sar][Sar][Sar][Sar]H[dD]VPC[Aib][1Nal]G[Aib]F[1Nal]CP[Tle]NR[Aib]GC (linker 16-23-30 via TBMB) [Compound 239] | 4.91 nM |
| [βAla][Sar][Sar][Sar][Sar][Sar][Sar][Sar][Sar][Sar][Sar]H[dD]VPC[Aib]WGP[hArg]WCP[Tle]N[hArg]P[dD]C (linker 16-23-30 via TBMB) [Compound 246] | 31.4 nM |
| [βAla][Sar][Sar][Sar][Sar][Sar][Sar][Sar][Sar][Sar][Sar]H[dD]VPC[Aib][1Nal]GP[hArg][1Nal]CP[Tle]N[hArg]P[dD]C (linker 16-23-30 via TBMB) [Compound 244] | 2.8 nM |
| [βAla][Sar][Sar][Sar][Sar][Sar][Sar][Sar][Sar][Sar][Sar]H[dD]VPC[Aib][1Nal]G[Aib]FWCP[Tle]N[hArg]P[dD]C (linker 16-23-30 via TBMB) [Compound 242] | 7.77 nM |

These reach a lower Ki. Values come first.

| Ki | Binder |
| --- | --- |
| 1.21 nM | Ac-[Sar][Sar]H[dD]VTCP[1Nal]G[Aib]F[1Nal]CP[Tle]NR[Aib]GC (linker 7-14-21 via TBMB) [Compound 285] |
| 1.19 nM | Ac-[Sar][Sar]A[dD]VTCP[1Nal]G[Aib]F[1Nal]CP[Tle]N[hArg]P[dD]C (linker 7-14-21 via TBMB) [Compound 184] |
| 1.11 nM | [βAla][Sar][Sar][Sar][Sar][Sar][Sar][Sar][Sar][Sar][Sar]H[dD]VPCPWG[Aib]F[1Nal]CP[Tle]N[hArg]P[dD]C (linker 16-23-30 via TBMB) [Compound 269] |
| 1.07 nM | [βAla][Sar][Sar][Sar][Sar][Sar][Sar][Sar][Sar][Sar][Sar]H[dD]VPCP[1Nal]G[Aib]F[1Nal]CP[Tle]N[hArg]PGC (linker 16-23-30 via TBMB) [Compound 257] |
| 0.91 nM | [βAla][Sar][Sar][Sar][Sar][Sar][Sar][Sar][Sar][Sar][Sar]H[dD]VPCP[1Nal]G[Aib]F[1Nal]CP[Tle]N[hArg][Aib][dD]C (linker 16-23-30 via TBMB) [Compound 259] |
| 0.9 nM | Ac-[Sar][Sar]A[dH]DVPCP[1Nal]G[Aib]F[1Nal]CP[Tle]NR[Aib]GC (linker 8-15-22 via TBMB) [Compound 232] |
| 0.85 nM | Ac-[Sar][Sar]H[dD]VPCP[1Nal]G[Aib]F[1Nal]CP[Tle]N[hArg]PGC (linker 7-14-21 via TBMB) [Compound 253] |
| 0.75 nM | {Ac-βAla}-[Sar][Sar][Sar][Sar][Sar][Sar][Sar][Sar][Sar][Sar]H[dD]VPCP[1Nal]G[Aib]F[1Nal]CP[Tle]NR[Aib][dD]C (linker 15-22-29 via TBMB) [Compound 260] |
| 0.64 nM | [βAla][Sar][Sar][Sar][Sar][Sar][Sar][Sar][Sar][Sar][Sar]H[dD][Gly(cPent)]TCP[1Nal]G[Aib]F[1Nal]CP[Tle]N[hArg]P[dD]C (linker 16-23-30 via TBMB) [Compound 280] |
| 0.59 nM | [βAla][Sar][Sar][Sar][Sar][Sar][Sar][Sar][Sar][Sar][Sar]H[dD][Gly(cPent)]TCP[1Nal]G[Aib]F[1Nal]CP[Tle]NR[Aib]GC (linker 16-23-30 via TBMB) [Compound 279] |
| 0.54 nM | {Ac-βAla}-[Sar][Sar][Sar][Sar][Sar][Sar][Sar][Sar][Sar][Sar]H[dD]VPCP[1Nal]G[Aib]F[1Nal]CP[Tle]NR[Aib]GC (linker 15-22-29 via TBMB) [Compound 258] |
| 0.53 nM | {Ac-βAla}-[Sar][Sar][Sar][Sar][Sar][Sar][Sar][Sar][Sar][Sar]H[dD][Gly(cPent)]PCP[1Nal]G[Aib]F[1Nal]CP[Tle]N[hArg]P[dD]C (linker 15-22-29 via TBMB) [Compound 277] |
| 0.46 nM | [βAla][Sar][Sar][Sar][Sar][Sar][Sar][Sar][Sar][Sar][Sar]H[dD][Gly(cPent)]PCP[1Nal]G[Aib]F[1Nal]CP[Tle]NR[Aib]GC (linker 16-23-30 via TBMB) [Compound 278] |
